Experimental data from patent publication US6649166.
Ends that are not written are not given here.

What was measured:
[1] = molecular target: T1, HLA-DR molecule encoded by the allele HLA-DRB1*1301 (human); experiment: competition ELISA, nonbiotinylated peptide against the biotinylated tracer of that DR molecule
T1 chain 1: not shown
T1 chain 2: not shown

[2] = molecular target: T2, HLA-DR molecule encoded by the allele HLA-DRB3*0101 (human); experiment: as above
T2 chain 1: not shown
T2 chain 2: not shown

[3] = molecular target: T1, HLA-DR molecule encoded by the allele …; experiment: competition ELISA, nonbiotinylated tracer peptide against its biotinylated form
[4] = molecular target: HLA-DR molecule encoded by the allele HLA-DRB1*1501 (human)
[5] = molecular target: HLA-DR molecule encoded by the allele HLA-DRB1*0301 (human); experiment: competition ELISA, nonbiotinylated tracer peptide against its biotinylated form
[6] = molecular target: T1, HLA-DR molecule encoded by the allele …; experiment: competition ELISA, purified HLA-DR, biotinylated tracer; minus sign = loss
[7] = molecular target: HLA-DR molecule encoded by the allele HLA-DRB1*0401 (human); experiment: as above
[8] = molecular target: T2, HLA-DR molecule encoded by the allele …; experiment: as above
[9] = molecular target: HLA-DR molecule encoded by the allele HLA-DRB1*0301 (human); experiment: as above
[10] = molecular target: HLA-DR molecule encoded by the allele HLA-DRB1*0101 (human); experiment: as above
[11] = molecular target: HLA-DR molecule encoded by the allele HLA-DRB1*1101 (human); experiment: as above
[12] = molecular target: T3, HLA-DR molecule encoded by the allele HLA-DRB1*0701 (human); experiment: as above
T3 chain 1: not shown
T3 chain 2: not shown

Binder TERVRLVTRHIYNREE (not fully specified) [B1 21-36 (nonbiotinylated peptide)] has an IC50 [1] of 275 nM, an IC50 [2] of 35000 nM and an IC50 [3] of 320 nM.

With YFVAKMYFNLIDT (modifications not checked) [API m1 peptide with glycine 84 substituted by an alanine] the factor of increase in affinity [4] was 5 fold.

With AKTIAYDEEARGLE (not fully specified) [MT 2-16 (nonbiotinylated peptide)] the IC50 [5] was 100 nM.

Work on KMYFTLIDTKAYK (modifications not checked) [peptide N89T, analog of the peptide P85-97A] yielded a relative activity (ratio of IC50 to P85-97A) [6] of 1 fold, a relative activity (ratio of IC50 to P85-97A) [7] of 2 fold and a relative activity (ratio of IC50 to P85-97A) [8] of 2 fold. The relative activity (ratio of IC50 to P85-97A) [9] was 7 fold, the relative activity (ratio of IC50 to P85-97A) [10] was 1 fold and the relative activity (ratio of IC50 to P85-97A) [11] was 2 fold. For the same binder, the relative activity (ratio of IC50 to P85-97A) [12] was 3 fold.
